Data reported in US20250302761A1 (INSTITUT NATIONAL DE LA SANT ET DE LA RECHERCHE M DICALE, published 2025).

Target: FKBP2-RFP-CD63
Experiment: cell-based or functional assay

B1: FRB-NanoLuciferase-HA (other)
chain: ILWHEMWHEGLEEASRLYFGERNVKGMFEVLEPLHAMMERGPQTLKETSFNQAYGRDLMEAQEWCRKYMKSGNVKDLLQAWDLYYHVFRRISK
EV NLuc specific activity, normalized on the 'No Drug' condition: 3.5 fold
NLuc activity in Fraction 7 of the floatation assay, 'Drug' against 'No Drug': 4 fold
